Measured values reported in the supplement of paper PMC7125110.
± gives the standard error. Fewer inactive variants are shown than the library holds.

B1: glmS ribozyme (parent)
chain: AUAAAAGCGCCAGAACUACAGAAAUGUAGUUGACGAGGAGGAGGUUUAUCGAAUUUUCGGCGGAUGCCUCCAAA

Legend:
Details in all cases: with glucosamine-6-phosphate
glucosamine-6-phosphate [1] = variants of: B1; assay: self-cleavage kobs at 640 uM GlcN6P; higher = faster cleavage; RNA array
Summary of the method: (§1)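 On sequenced MiSeq chips, barcoded ribozyme variants were made in situ by E. coli RNA polymerase and followed at 37 °C through a hybridised Cy3 probe. Glucosamine-6-phosphate was flowed in at 40 μM to 10 mM in HEPES/KCl/Mg(OAc)2 buffer. Exponential fits to normalised per-tile medians gave kobs, and weighted Michaelis–Menten fits gave kcat and KM.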

glucosamine-6-phosphate [2] = variants of: B1; assay: self-cleavage kobs at 2500 uM GlcN6P; higher = faster cleavage; RNA array
Summary of the method: as §1

glucosamine-6-phosphate [3] = variants of: B1; assay: self-cleavage kobs at 10000 uM GlcN6P; higher = faster cleavage; RNA array
Summary of the method: as §1

| Variant | self-cleavage kobs at 640 uM GlcN6P (glucosamine-6-phosphate [1]) [s⁻¹] | self-cleavage kobs at 2500 uM GlcN6P (glucosamine-6-phosphate [2]) [s⁻¹] | self-cleavage kobs at 10000 uM GlcN6P (glucosamine-6-phosphate [3]) [s⁻¹] |
| --- | --- | --- | --- |
| C8U A12U G51U | < 1e-05 | < 1e-05 | – |
| G9U G32A G43C | < 1e-05 | – | – |
| U45C A53C | 9.37e-05 ± 1.6e-05 | – | 0.000403 ± 0.00014 |
| U55G G66C C70U | 0.000456 ± 0.0001 | 0.000343 ± 8.7e-05 | – |
| G29A G43A U56A | < 1e-05 | – | – |
| G43C G51U C61G | < 1e-05 | < 1e-05 | – |
| U45C A53U C67G | 0.00389 ± 0.0016 | – | – |
| A14G A15G C34G U69A | 0.000303 ± 0.00014 | – | – |
| C34A G38U U54A | < 1e-05 | < 1e-05 | – |
| A15U U45C G66U C67G | 7.69e-05 ± 2.9e-05 | 0.000193 ± 5.8e-05 | – |
| U31A C58U U69G | 0.000109 ± 4.2e-05 | 7.72e-05 ± 2.2e-05 | – |
| G35A G51A C58U | < 1e-05 | – | – |
| A14U C61A G66A | < 1e-05 | – | – |
| U30A G40U G63A A64G | < 1e-05 | – | – |
| C34G G44U C50U C71U | < 1e-05 | < 1e-05 | – |
| G7U U31G C70A | 0.000541 ± 0.00017 | – | – |
| G9U G32C A42G U45G | < 1e-05 | < 1e-05 | – |
| A12U A15U C68G | 8.06e-05 ± 2.7e-05 | – | – |
| C67A U69A | 0.000234 ± 4.1e-05 | 0.000247 ± 5.8e-05 | – |
| C8G U55C C71A | < 1e-05 | < 1e-05 | – |
| G29U G37A C50G C68G | 0.000384 ± 0.00016 | 5.37e-05 ± 1.7e-05 | – |
| A15U C58U U69A | 0.000113 ± 2.4e-05 | 0.000115 ± 3.3e-05 | – |
| C10U U49A U55A | < 1e-05 | – | – |
| G38A A42G G62U | < 1e-05 | – | – |

| Variant | self-cleavage kobs at 640 uM GlcN6P (glucosamine-6-phosphate [1]) [s⁻¹] | self-cleavage kobs at 2500 uM GlcN6P (glucosamine-6-phosphate [2]) [s⁻¹] | self-cleavage kobs at 10000 uM GlcN6P (glucosamine-6-phosphate [3]) [s⁻¹] |
| --- | --- | --- | --- |
| G32C G35U A52G | < 1e-05 | < 1e-05 | – |
| G43A A48G A53U G62C | < 1e-05 | – | – |
| G38U A64U C70G | 8.06e-05 ± 3.4e-05 | – | – |
| G29A A52C U57G A64G C71A | < 1e-05 | – | – |
| A12C A52U U57A | 0.000131 ± 2.7e-05 | 0.000458 ± 5.1e-05 | – |
| G9C A15C A64C C68G | < 1e-05 | – | – |
| G9U C10U C11A | < 1e-05 | – | – |
| G43A U45A A53U G62C A64U | < 1e-05 | < 1e-05 | – |
| A15G U31C A33C A52U U54C | < 1e-05 | < 1e-05 | – |
| A15G G38U G59C | < 1e-05 | – | – |
| A53G U54A G63U | < 1e-05 | < 1e-05 | – |
| A6C G13A G38A C58U | < 1e-05 | – | – |
| A6C A42C C50A U54G G59C C61U | < 1e-05 | – | – |
| C16G G29A G40A A42C | < 1e-05 | < 1e-05 | – |
| C8A U30C G51U | < 1e-05 | – | – |
| C16U G32C G35A C68A | < 1e-05 | < 1e-05 | – |
| G43A U55G C61U G62C | < 1e-05 | – | – |
| A33G G43U G59U A64G | < 1e-05 | < 1e-05 | – |
| G9A U47G U49G | < 1e-05 | – | – |
| A6U C61G C67A | 0.000106 ± 3.9e-05 | 0.00149 ± 0.00065 | – |
| A15U G41C G44U A48U U49A G51U C67U | < 1e-05 | – | – |
| G35U A36G C61A | < 1e-05 | – | – |
| A12U G35C C70U | < 1e-05 | < 1e-05 | – |
| U45A U49C | < 1e-05 | – | < 1e-05 |

| Variant | self-cleavage kobs at 640 uM GlcN6P (glucosamine-6-phosphate [1]) [s⁻¹] | self-cleavage kobs at 2500 uM GlcN6P (glucosamine-6-phosphate [2]) [s⁻¹] | self-cleavage kobs at 10000 uM GlcN6P (glucosamine-6-phosphate [3]) [s⁻¹] |
| --- | --- | --- | --- |
| A36C U49C | < 1e-05 | – | < 1e-05 |
| C11G C34G G59A | < 1e-05 | < 1e-05 | – |
| U49C C61A | < 1e-05 | – | – |
| G35C A36U G38A | < 1e-05 | – | – |
| C10U A12C G60U | < 1e-05 | – | – |
| G41C A48U C71U | < 1e-05 | – | – |
| G9U C19A G62U G63U | < 1e-05 | – | – |
| A36U A52U | < 1e-05 | < 1e-05 | – |
| C11A A14C A52U | < 1e-05 | – | – |
| G7A U31G G41U C68U | < 1e-05 | – | – |
| C16G U45C U54A C70U | 6.18e-05 ± 2.7e-05 | – | – |
| A12G G32U G44C G60A C70G | < 1e-05 | – | – |
| G29A A33G U69A | 5.13e-05 ± 2.3e-05 | 4.9e-05 ± 1.9e-05 | – |
| C8A G13A C61U G62C C70A | < 1e-05 | < 1e-05 | – |
| A14U G62U U69A | < 1e-05 | – | – |
| A15U C50A C68U | 7.76e-05 ± 2.5e-05 | – | – |
| A15C G32U U55G C58G U69G | 0.000909 ± 0.00036 | – | – |
| C10U G21U G62A | < 1e-05 | – | < 1e-05 |
| A39C U56C | 0.00018 ± 3.3e-05 | 0.000456 ± 0.00015 | 0.00101 ± 0.00021 |
| A42C C61U C68G C71U | < 1e-05 | – | – |
| C16G A36G G40A G63U | < 1e-05 | < 1e-05 | – |
| C8G C58A U65G C71A | < 1e-05 | – | – |
